Assay results: article PMC4558366 (Cell reports, 2015)

Molecular target: T1, UHRF1_(647-687) (human, UniProt Q96T88-2 647-687)
T1 chain (looked up): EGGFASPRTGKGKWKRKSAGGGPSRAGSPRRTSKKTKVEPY
Test: ITC

B1: USP7 UBL1-2 E736A (domain or fragment)
chain: EAHLYMQVQIVAEDQFCGHQGNDMYDEEKVKYTVFKVLKNSSLAEFVQSLSQTMGFPQDQIRLWPMQARSNGTKRPAMLDNEADGNKTMIELSDNENPWTIFLETVDPELAASGATLPKFDKDHDVMLFLKMYDPKTRSLNYCGHIYTPISCKIRDLLPVMCDRAGFIQDTSLILYAEVKPNLTERIQDYDVSLDKALDELMDGDIIVFQKDDPENDNSELPTAKEYFRDLYH
fold reduction of binding affinity against wild type: 4 fold
